Usually stoichiometry N stands for a count of units in the complex or per binding partner.

Common to all, as to test: SEC
Assay [1] concerns the target SARS-CoV-2 Delta Spike protein (B.1.617.2), tagless (SARS-CoV-2 | bacteriophage T4 (from the name T4 fibritin)) (UniProt P0DTC2).
Assay [2] deals with SARS-CoV-2 Gamma Spike protein (P.1), tagless (SARS-CoV-2 | bacteriophage T4 (from the name T4 fibritin)) (UniProt P0DTC2).
The target of assay [3] is SARS-CoV-2 Beta Spike protein (B.1.351), tagless (SARS-CoV-2 | bacteriophage T4 (from the name T4 fibritin)) (UniProt P0DTC2).
The target in assay [4] is SARS-CoV-2 D614G Spike protein, tagless (SARS-CoV-2 | bacteriophage T4 (from the name T4 fibritin)) (UniProt P0DTC2).

Substance “SARS-CoV-2 Delta Spike protein (B.1.617.2), tagless (from UniProt P0DTC2 1-1208) (natural protein)” yielded a stoichiometry N in assay [1] of 3.
Substance “SARS-CoV-2 Gamma Spike protein (P.1), tagless (from UniProt P0DTC2 1-1208) (natural protein)” yielded a stoichiometry N in assay [2] of 3.
Substance “SARS-CoV-2 Beta Spike protein (B.1.351), tagless (from UniProt P0DTC2 1-1208) (natural protein)” came in with a stoichiometry N in assay [3] of 3.
“SARS-CoV-2 D614G Spike protein, tagless (from UniProt P0DTC2 1-1208) (natural protein)” came in with a stoichiometry N in assay [4] of 3.

For the origin of these results see paper PMC9710096.
